B1: MIP-1β (ligand, human, UniProt P13236 24-92, looked up)
chain: APMGSDPPTACCFSYTARKLPRNFVVDYYETSSLCSQPAVVFQTKRSKQVCADPSESWVQEYVYDLELN
B2: RANTES (ligand, human, UniProt P13501 24-91, looked up)
chain: SPYSSDTTPCCFAYIARPLPRAHIKEYFYTSGKCSNPAVVFVTRKNRQVCANPEKKWVREYINSLEMS
notes: also called unlabeled RANTES
B3: MIP-1α (ligand, human, UniProt P10147 23-92, looked up)
chain: ASLAADTPTACCFSYTSRQIPQNFIADYFETSSQCSKPGVIFLTKRSRQVCADPSEEWVQKYVSDLELSA
notes: also called unlabeled MIP-1α
B4: MCP-3 (ligand)
chain: not shown
notes: also called unlabeled MCP-3
B5: CC CKR2B, stably expressed on HEK 293 cells (receptor)
chain: MLSTSRSRFIRNTNESGEEVTTFFDYDYGAPCHKFDVKQIGAQLLPPLYSLVFIFGFVGNMLVVLILINCKKLKCLTDIYLLNLAISDLLFLITLPLWAHSAANEWVFGNAMCKLFTGLYHIGYFGGIFFIILLTIDRYLAIVHAVFALKARTVTFGVVTSVITWLVAVFASVPGIIFTKCQKEDSVYVCGPYFPRGWNNFHTIMRNILGLVLPLLIMVICYSGILKTLLRCRNEKKRHRAVRVIFTIMIVYFLFWTPYNIVILLNTFQEFFGLSNCESTSQLDQATQVTETLGMTHCCINPIIYAFVGEKFRRYLSVFFRKHITKRFCKQCPVFYRETVDGVTSTNTPSTGEQEVSAGL
notes: also called CCR2b

How the values were obtained:
[1] = target: T1, CC CKR1, stably expressed on HEK 293 cells (Homo sapiens (Human), UniProt P32246 1-355); test: homologous competition against ^125I-MIP-1β on CC CKR1 cells
T1 construct: also called CC CKLR1
T1 sequence: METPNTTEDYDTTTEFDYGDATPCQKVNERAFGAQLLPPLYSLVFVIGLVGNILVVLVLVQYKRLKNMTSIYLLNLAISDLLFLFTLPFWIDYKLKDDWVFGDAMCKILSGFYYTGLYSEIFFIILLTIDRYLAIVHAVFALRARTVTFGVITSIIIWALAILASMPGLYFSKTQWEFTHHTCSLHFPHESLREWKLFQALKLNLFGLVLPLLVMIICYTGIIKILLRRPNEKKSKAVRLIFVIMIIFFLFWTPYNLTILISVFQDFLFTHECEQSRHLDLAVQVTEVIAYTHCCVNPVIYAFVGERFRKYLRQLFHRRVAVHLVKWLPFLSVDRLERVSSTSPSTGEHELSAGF
Method: (§1) After incubation for 1 h at 4° C. or 37° C., unbound chemokines were separated from cells by pelleting through a 10% sucrose/PBS cushion, and the cell-associated counts were determined.

[2] = target: T2, CC chemokine receptor 5 (CCR5), clone 8.5 cDNA, stably expressed on HEK 293 cells (human, UniProt P51681 1-352); test: homologous competition against ^125I-MIP-1β on CCR5.1 cells
T2 construct: also called CC CKR5; CCR5 transfectants
Method: as §1

[3] = target: T2, CC chemokine receptor 5 (CCR5), clone …; test: homologous competition against ^125I-MIP-1β; reference CC CKR1 cells
Method: as §1

[4] = target: T1, CC CKR1, stably expressed on HEK 293 …; test: radioligand binding at 37° C. to CC CKR1 cells
Method: as §1

[5] = target: T1, CC CKR1, stably expressed on HEK 293 …; test: homologous competition against ^125I-MIP-1α on CC CKR1-transfected HEK 293 cells, 4° C.
Method: as §1
Each of the six CCR5 transfectants were tested at 4° C.

[6] = target: T2, CC chemokine receptor 5 (CCR5), clone …; test: homologous competition against ^125I-MIP-1α on CCR5.1 cells
Method: as §1

[7] = target: T1, CC CKR1, stably expressed on HEK 293 …; test: homologous competition against ^125I-MIP-1α; reference CCR5.1 cells
Method: as §1

[8] = target: T1, CC CKR1, stably expressed on HEK 293 …; test: heterologous competition against ^125I-RANTES on CC CKR1 cells, 37° C.
Method: as §1

[9] = target: T1, CC CKR1, stably expressed on HEK 293 …; test: homologous competition against ^125I-MIP-1α on CC CKR1 cells
Method: as §1

[10] = target: T1, CC CKR1, stably expressed on HEK 293 …; test: radioligand binding at 37° C. to CC CKR1-transfected HEK 293 cells
Method: as §1

[11] = target: B1; test: radioligand binding to intact transfected HEK 293 cells, 0.2 nM ^125I-chemokine
Method: as §1

[12] = target: B2; test: as above
Method: as §1

[13] = target: B3; test: as above
Method: as §1

T2 sequence (P51681 whole entry): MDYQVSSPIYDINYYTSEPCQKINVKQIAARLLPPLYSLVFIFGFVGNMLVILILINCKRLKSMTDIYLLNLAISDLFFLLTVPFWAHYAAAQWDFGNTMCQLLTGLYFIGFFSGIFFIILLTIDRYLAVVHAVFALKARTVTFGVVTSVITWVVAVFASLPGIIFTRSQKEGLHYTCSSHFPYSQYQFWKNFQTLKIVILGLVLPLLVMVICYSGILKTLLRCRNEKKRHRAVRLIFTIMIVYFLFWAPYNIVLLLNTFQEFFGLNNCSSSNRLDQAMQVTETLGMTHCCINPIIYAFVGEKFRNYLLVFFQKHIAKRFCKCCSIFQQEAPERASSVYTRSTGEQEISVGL

B1
IC50 [1]: ~200 nM
IC50 [2]: ~100 nM
fold more effective competition on CCR5.1 than on CC CKR1 [3]: ~2 fold

B2
binding result [4]: binds

B3
Ki [5]: 10 nM
IC50 [6]: ~100 nM
fold more effective competition on CC CKR1 than on CCR5.1 [7]: 20 fold
IC50 [8]: ~20 nM
IC50 [9]: ~5 nM

B4
binding result [10]: binds

B5
binding result [11]: no binding
binding result [12]: no binding
binding result [13]: no binding
